The values that follow come from article PMC11358308 (2024).

One assay concerns the target cynomolgus BCMA (cynomolgus monkey). Put plainly: SPR. On the technique in general: In SPR one partner is held on a chip, and binding of the other changes the refractive index at the surface.
For assay [1], the target named is T1, human B-cell maturation antigen (BCMA), extracellular domain (human, UniProt Q02223 1-54).
T1 chain: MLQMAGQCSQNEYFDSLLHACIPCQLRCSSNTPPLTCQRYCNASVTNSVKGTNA
Put plainly: SPR.

Chain of cynomolgus BCMA (cynomolgus monkey) (chain, as listed by the source): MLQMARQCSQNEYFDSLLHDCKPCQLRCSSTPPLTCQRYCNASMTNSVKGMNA

B1: J22.9-xi, chimaeric mouse/human IgG (antibody, V domains shown)
VH: QVQLQQSGGGLVQPGGSLKLSCAASGIDFSRYWMSWVRRAPGKGLEWIGEINPDSSTINYAPSLKDKFIISRDNAKNTLYLQMSKVRSEDTALYYCASLYYDYGDAMDYWGQGTSVTVSS
VL: DIVMTQSQRFMTTSVGDRVSVTCKASQSVDSNVAWYQQKPRQSPKALIFSASLRFSGVPARFTGSGSGTDFTLTISNLQSEDLAEYFCQQYNNYPLTFGAGTKLELK
Consider B1, for which, in the assay with cynomolgus BCMA, binding was characterised by a dissociation constant (Kd) of 2.7 nM.

B2: J22.9-FSY, humanized and CDR-optimized IgG (antibody, V domains shown)
VH: EVQLVESGGGLVQPGGSLRLSCAASGFTFSRYWFSWVRQAPGKGLVWVGEINPSSSTINYAPSLKDKFTISRDNAKNTLYLQMNSLRAEDTAVYYCASLYYDYGDAYDYWGQGTLVTVSS
VL: EIVMTQSPATLSVSPGERATLSCKASQSVESNVAWYQQKPGQAPRALIYSASLRFSGIPARFSGSGSGTEFTLTISSLQSEDFAVYYCQQYNNYPLTFGAGTKLELK
Consider B2, for which the Kd in assay [1] was found to be 2.2 nM; with cynomolgus BCMA, 20 nM.

B3: J22.9-H, humanized IgG (all humanizing substitutions in VH and VL except A46L in VL) (antibody, V domains shown)
VH: EVQLVESGGGLVQPGGSLRLSCAASGFTFSRYWMSWVRQAPGKGLVWVGEINPDSSTINYAPSLKDKFTISRDNAKNTLYLQMNSLRAEDTAVYYCASLYYDYGDAMDYWGQGTLVTVSS
VL: EIVMTQSPATLSVSPGERATLSCKASQSVDSNVAWYQQKPGQAPRALIYSASLRFSGIPARFSGSGSGTEFTLTISSLQSEDFAVYYCQQYNNYPLTFGAGTKLELK
B3 gave a Kd with cynomolgus BCMA of 200 nM.

B4: J22.9-ISY, humanized and CDR-optimized IgG (antibody, V domains shown)
VH: EVQLVESGGGLVQPGGSLRLSCAASGFTFSRYWISWVRQAPGKGLVWVGEINPSSSTINYAPSLKDKFTISRDNAKNTLYLQMNSLRAEDTAVYYCASLYYDYGDAYDYWGQGTLVTVSS
VL: EIVMTQSPATLSVSPGERATLSCKASQSVESNVAWYQQKPGQAPRALIYSASLRFSGIPARFSGSGSGTEFTLTISSLQSEDFAVYYCQQYNNYPLTFGAGTKLELK
For B4, the Kd in assay [1] is 2 nM; with cynomolgus BCMA, 17 nM.

The term Kd denotes the constant that tells how readily two partners part at equilibrium. A low value points to tighter binding.
